{
  "source": "patent US20190314526A1",
  "assay_in_all_cases": "cell-based or functional assay",
  "key": {"[1]": {"biological_target": "caprine (goat) AAV capsid (caprine rAAV virion) (caprine AAV)"}, "[2]": {"biological_target": "primate AAV-8 capsid (rAAV virion) (primate AAV-8)"}, "[3]": {"biological_target": "bovine AAV-C1 capsid (AAV-C1-LacZ vector) (bovine AAV)"}, "[4]": {"biological_target": "primate AAV-1 capsid (rAAV virion) (primate AAV-1)"}, "[5]": {"biological_target": "caprine (goat) AAV capsid (caprine rAAV virion) (caprine AAV)", "remark": "listed apart in the source"}, "[6]": {"biological_target": "AAV-2 with a wild-type capsid (rAAV-2 virion) (AAV-2) (UniProt P03135)"}, "[7]": {"biological_target": "primate AAV-4 capsid (rAAV virion) (primate AAV-4)"}, "[8]": {"biological_target": "primate AAV-3B capsid (rAAV virion) (primate AAV-3B)"}, "[9]": {"biological_target": "primate AAV-5 capsid (rAAV virion) (primate AAV-5)"}, "[10]": {"biological_target": "primate AAV-6 capsid (rAAV virion) (primate AAV-6)"}, "[11]": {"biological_target": "primate AAV-8 capsid (rAAV virion) (primate AAV-8)", "remark": "listed apart in the source"}},
  "note": "Where two headings read alike, the source gives them in different places.",
  "data": [
    {"substance": "purified pooled human IgG IVIG-8 (Panglobulin Lot #1838-00351, ZLB Bioplasma AG)", "values": [
      {"measurement": "Lowest concentration of IVIG showing >50% neutralization of the virus", "setting": "[1]", "result": 40, "unit": "mg/mL"},
      {"measurement": "Lowest concentration of IVIG showing >50% neutralization of the virus", "setting": "[2]", "result": 10, "unit": "mg/mL"},
      {"measurement": "fold more resistant to neutralization by human IVIG than AAV-2", "setting": "[3]", "result": 16, "unit": "fold"},
      {"measurement": "lowest concentration of IVIG showing more than 50% neutralization", "setting": "[3]", "result": 3.25, "unit": "mg/mL"},
      {"measurement": "% blue cells compared to the control at IVIg 8 0.01 ug/ul", "setting": "[4]", "result": 100, "unit": "%"},
      {"measurement": "% blue cells compared to the control at IVIg 8 0.1 ug/ul", "setting": "[4]", "result": 86, "unit": "%"},
      {"measurement": "% blue cells compared to the control at IVIg 8 10 ug/ul", "setting": "[4]", "result": 14, "unit": "%"},
      {"measurement": "% blue cells compared to the control at IVIg 8 50 ug/ul", "setting": "[4]", "result": 0, "unit": "%"},
      {"measurement": "Lowest concentration of IVIG showing >50% neutralization of the virus", "setting": "[4]", "result": 10, "unit": "mg/mL"},
      {"measurement": "% of control transduction at IVIg 8 0.1 ug/ul", "setting": "[5]", "result": 120, "unit": "%"},
      {"measurement": "% of control transduction at IVIg 8 1 ug/ul", "setting": "[5]", "result": 93, "unit": "%"},
      {"measurement": "% of control transduction at IVIg 8 10 ug/ul", "setting": "[5]", "result": 80, "unit": "%"},
      {"measurement": "% of control transduction at IVIg 8 40 ug/ul", "setting": "[5]", "result": 14, "unit": "%"},
      {"measurement": "% of control transduction at IVIg 8 50 ug/ul", "setting": "[5]", "result": 8, "unit": "%"},
      {"measurement": "Lowest concentration of IVIG showing >50% neutralization of the virus", "setting": "[5]", "result": 50, "unit": "mg/mL"},
      {"measurement": "% blue cells compared to the control at IVIg 8 0.01 ug/ul", "setting": "[6]", "result": 100, "unit": "%"},
      {"measurement": "% blue cells compared to the control at IVIg 8 0.1 ug/ul", "setting": "[6]", "result": 100, "unit": "%"},
      {"measurement": "% blue cells compared to the control at IVIg 8 10 ug/ul", "setting": "[6]", "result": 2, "unit": "%"},
      {"measurement": "% blue cells compared to the control at IVIg 8 50 ug/ul", "setting": "[6]", "result": 0, "unit": "%"},
      {"measurement": "Lowest concentration of IVIG showing >50% neutralization of the virus", "setting": "[6]", "result": 10, "unit": "mg/mL"},
      {"measurement": "lowest concentration of IVIG showing more than 50% neutralization", "setting": "[6]", "result": 0.2, "unit": "mg/mL"},
      {"measurement": "% blue cells compared to the control at IVIg 8 0.01 ug/ul", "setting": "[7]", "result": 100, "unit": "%"},
      {"measurement": "% blue cells compared to the control at IVIg 8 0.1 ug/ul", "setting": "[7]", "result": 100, "unit": "%"},
      {"measurement": "% blue cells compared to the control at IVIg 8 1 ug/ul", "setting": "[7]", "result": 100, "unit": "%"},
      {"measurement": "% blue cells compared to the control at IVIg 8 50 ug/ul", "setting": "[7]", "result": 49, "unit": "%"},
      {"measurement": "Lowest concentration of IVIG showing >50% neutralization of the virus", "setting": "[7]", "result": 50, "unit": "mg/mL"},
      {"measurement": "% blue cells compared to the control at IVIg 8 0.01 ug/ul", "setting": "[8]", "result": 92, "unit": "%"},
      {"measurement": "% blue cells compared to the control at IVIg 8 1 ug/ul", "setting": "[8]", "result": 45, "unit": "%"},
      {"measurement": "% blue cells compared to the control at IVIg 8 10 ug/ul", "setting": "[8]", "result": 0, "unit": "%"},
      {"measurement": "% blue cells compared to the control at IVIg 8 50 ug/ul", "setting": "[8]", "result": 0, "unit": "%"},
      {"measurement": "Lowest concentration of IVIG showing >50% neutralization of the virus", "setting": "[8]", "result": 1, "unit": "mg/mL"},
      {"measurement": "% blue cells compared to the control at IVIg 8 0.1 ug/ul", "setting": "[9]", "result": 17, "unit": "%"},
      {"measurement": "% blue cells compared to the control at IVIg 8 1 ug/ul", "setting": "[9]", "result": 1, "unit": "%"},
      {"measurement": "% blue cells compared to the control at IVIg 8 10 ug/ul", "setting": "[9]", "result": 1, "unit": "%"},
      {"measurement": "% blue cells compared to the control at IVIg 8 50 ug/ul", "setting": "[9]", "result": 0, "unit": "%"},
      {"measurement": "Lowest concentration of IVIG showing >50% neutralization of the virus", "setting": "[9]", "result": 0.1, "unit": "mg/mL"},
      {"measurement": "% blue cells compared to the control at IVIg 8 0.01 ug/ul", "setting": "[10]", "result": 100, "unit": "%"},
      {"measurement": "% blue cells compared to the control at IVIg 8 0.1 ug/ul", "setting": "[10]", "result": 81, "unit": "%"},
      {"measurement": "% blue cells compared to the control at IVIg 8 10 ug/ul", "setting": "[10]", "result": 14, "unit": "%"},
      {"measurement": "% blue cells compared to the control at IVIg 8 50 ug/ul", "setting": "[10]", "result": 0, "unit": "%"},
      {"measurement": "Lowest concentration of IVIG showing >50% neutralization of the virus", "setting": "[10]", "result": 10, "unit": "mg/mL"},
      {"measurement": "% blue cells compared to the control at IVIg 8 0.01 ug/ul", "setting": "[11]", "result": 90, "unit": "%"},
      {"measurement": "% blue cells compared to the control at IVIg 8 0.1 ug/ul", "setting": "[11]", "result": 88, "unit": "%"},
      {"measurement": "% blue cells compared to the control at IVIg 8 1 ug/ul", "setting": "[11]", "result": 77, "unit": "%"},
      {"measurement": "% blue cells compared to the control at IVIg 8 50 ug/ul", "setting": "[11]", "result": 0, "unit": "%"},
      {"measurement": "% of control transduction at IVIg 8 0.1 ug/ul", "setting": "[11]", "result": 105, "unit": "%"},
      {"measurement": "% of control transduction at IVIg 8 10 ug/ul", "setting": "[11]", "result": 44, "unit": "%"},
      {"measurement": "% of control transduction at IVIg 8 20 ug/ul", "setting": "[11]", "result": 11, "unit": "%"},
      {"measurement": "% of control transduction at IVIg 8 40 ug/ul", "setting": "[11]", "result": 0, "unit": "%"},
      {"measurement": "% of control transduction at IVIg 8 50 ug/ul", "setting": "[11]", "result": 0, "unit": "%"},
      {"measurement": "Lowest concentration of IVIG showing >50% neutralization of the virus", "setting": "[11]", "result": 50, "unit": "mg/mL"}
    ]}
  ]
}
